The target in one experiment is TNFR1-Fc (UniProt P25118). The experiment can be described thus: BLI.
The target in a further experiment is TNFR2-Fc (UniProt P25119). Briefly: BLI. On the technique in general: Biolayer interferometry detects binding as a change in optical thickness at a sensor tip.
Chain of UniProt P25119 (P25119 23-258): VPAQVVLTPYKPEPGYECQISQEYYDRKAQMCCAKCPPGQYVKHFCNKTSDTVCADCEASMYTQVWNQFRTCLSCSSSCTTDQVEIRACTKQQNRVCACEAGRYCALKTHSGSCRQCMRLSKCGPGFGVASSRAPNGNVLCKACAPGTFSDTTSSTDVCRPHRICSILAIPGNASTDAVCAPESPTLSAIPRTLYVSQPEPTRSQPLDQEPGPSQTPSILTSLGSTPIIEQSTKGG

Chain of UniProt P25118 (P25118 30-212): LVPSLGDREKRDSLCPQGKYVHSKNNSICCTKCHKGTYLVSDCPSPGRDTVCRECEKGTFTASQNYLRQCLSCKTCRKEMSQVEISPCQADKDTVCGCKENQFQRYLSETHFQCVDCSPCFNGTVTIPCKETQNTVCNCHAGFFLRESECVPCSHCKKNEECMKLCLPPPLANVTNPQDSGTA

The Kd is the equilibrium constant for the complex coming apart. Lower therefore signals a tighter complex. As to “mutated NGR-TNFα with valine at the start of TNFα (NGR-TNFα-V)”, the Kd with TNFR1-Fc turned out to be 0.526 nM; in the experiment with TNFR2-Fc it was 2.45 nM.
Take “mutated murine TNFα with valine at the start (TNFα-V) (ligand)”: the Kd in the experiment with TNFR1-Fc came to 0.326 nM; in the experiment with TNFR2-Fc, 1.86 nM.
For “native NGR-TNFα with leucine at the start of TNFα (NGR-TNFα-L)”, in that order: 0.741 nM and 4.63 nM.
For the substance “native murine TNFα with leucine at the start (TNFα-L) (ligand)”, the results for the Kd in the experiment with TNFR1-Fc and in the experiment with TNFR2-Fc were 0.309 nM and 2.1 nM, respectively.
